In PMC3060798, “Molecular Determinants of S100B Oligomer Formation” (PLoS ONE, 2011):
Where “and” joins values, the source holds several entries; their conditions need not be identical. Equal entries are not always repeated.

B1: S100B dimer (highly pure, trigger-free) (natural protein, rat, UniProt P04631 1-92, looked up)
chain: MSELEKAMVALIDVFHQYSGREGDKHKLKKSELKELINNELSHFLEEIKEQEVVDKVMETLDEDGDGECDFQEFMAFVSMVTTACHEFFEHE
notes: S100B, rat; plasmid with the rat S100B gene (gift from D. Weber); monomer 10.7 kDa, dimer 21.5 kDa as printed; Homodimer; No tag is mentioned; In rows of m1 with m1 the step meant (monomers to dimer, or dimers to tetramer and higher) is told in the assay's format; also called trigger-free S100B; trigger-free S100B dimer
B2: S100B hexamer (natural protein, rat, UniProt P04631 1-92, looked up)
chain: MSELEKAMVALIDVFHQYSGREGDKHKLKKSELKELINNELSHFLEEIKEQEVVDKVMETLDEDGDGECDFQEFMAFVSMVTTACHEFFEHE
notes: S100B, rat; same chain as m1, isolated as hexamer (64.5 kDa expected); Same polypeptide as m1 in another oligomeric state; free of imidazol after gel filtration; also called hexamer fraction; source: E. coli BL21 De3 PLysS star; trigger-free dimer triggered with 90 mM imidazol, hexamer fraction collected from Superdex 200 gel filtration
B3: S100B tetramer (natural protein, rat, UniProt P04631 1-92, looked up)
chain: MSELEKAMVALIDVFHQYSGREGDKHKLKKSELKELINNELSHFLEEIKEQEVVDKVMETLDEDGDGECDFQEFMAFVSMVTTACHEFFEHE
notes: S100B, rat; same chain as m1, isolated as tetramer (43.0 kDa expected); Same polypeptide as m1 in another oligomeric state; free of imidazol after gel filtration; also called tetramer fraction; source: E. coli BL21 De3 PLysS star; trigger-free dimer triggered with 90 mM imidazol, tetramer fraction collected from Superdex 200 gel filtration

What was measured:
[1] = target: T1, p53 target peptide (Met followed by residues 367-388 of p53, Phe 385 changed to Trp) (Phe 385 changed to Trp (stands in the printed letters)); experiment: other fluorescence titration; p53 peptide (0.07-1.3 µM) titrated with S100B dimer, tetramer or hexamer stock; 10 mM BisTris, 5 mM CaCl2, pH 7, 25 °C; Trp emission at 330 nm, excitation 295 nm; 1:1 binding model fitted against total S100B monomer concentration; conditions: both partners purified
T1 construct: added Met before the p53 residues; p53, C-terminal regulatory domain, residues 367-388 with Phe 385 changed to Trp; the peptide was cleaved off; also called p53 peptide; target peptide from p53; source: E. coli ER2566, purified (DEAE cellulose, chitin column, cleaved off from the intein with 50 mM DTT, G25 gel filtration)
T1 peptide: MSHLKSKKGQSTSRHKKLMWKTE

[2] = target: the molecule itself; experiment: SEC; analytical gel filtration on Superdex 200; step: dimers to tetramer, hexamer and higher oligomers; 20 mg/ml trigger-free S100B dimer with imidazol (20-900 mM, optimum 90 mM), 1 mM EDTA, 1 mM DTT, 0.25 M NaCl, pH 7.0, lyophilized, dissolved, incubated 24 h at 4 °C
[3] = target: the molecule itself; experiment: SEC; hexamer, tetramer and dimer fractions collected after imidazol triggering, reinjected on Superdex 200 and analysed repeatedly during storage for up to 6 months in solution at 4 °C
[4] = target: the molecule itself; experiment: dynamic light scattering; ZetaSizer Nano-S; fractions collected directly from the Superdex200 column in 25 mM sodium carbonate with 25 mM HCl, pH 7.3

Binder	stoichiometry N [1]	stoichiometry N [2]	stoichiometry N [3]	stoichiometry N [4]
B1	2 peptides per dimer	4 and 6	2	–
B2	6 peptides per hexamer	–	–	6
B3	4 peptides per tetramer	–	–	4
